Assay results reported in doi:10.1101/2023.12.01.569227 (bioRxiv, 2023).
Changes are numbered by the printed parent chain.

B1: Seq8 (VHH)
VHH: QVQLQESGGGLVQAGGSLRLSCAASGYGFSEYAMGWFRQAPGKEREFVATISWSGRSTYYTDSVKGRFTISRDNAKNTVYLQMNSLKPDDTAVYYCARAGWGVVVSEWDYDYDYWGQGTQVTVSS
B2: Seq6 (VHH)
VHH: B1 VHH with Y27R, G28L, R98K
B3: Seq5 (VHH)
VHH: B1 VHH with Y27R, G28M, R56K, S57G, W101F, V104Y
B4: Seq12 (VHH)
VHH: B1 VHH with Y27R, G28T, R56G, T58K, R98A, W101L, V103T
B5: Seq2 (VHH)
VHH: B1 VHH with Y27R, R56G, S57G, W101F, V104W
B6: Seq1 (VHH)
VHH: B1 VHH with Y27R, G28T, Y32T, S57G, R98Y, W101Y
B7: Seq4 (VHH)
VHH: B1 VHH with Y27R, G28S, S57A, W101Y
B8: Seq11 (VHH)
VHH: B1 VHH with Y27R, G28K, S57L, R98G, W101Y
B9: Seq3 (VHH)
VHH: B1 VHH with Y27R, G28M, Y32T, S57G, R98G, W101Y, V104Y
B10: Seq7 (VHH)
VHH: B1 VHH with Y27L, G28K, Y32T, W101Y

What follows are binders tested against SARS-CoV-2 RBD (SARS-CoV-2, Wuhan-Hu-1, UniProt P0DTC2, biotinylated with an EZ-Link NHS-PEG4 biotinylation kit) (assay: BLI).

| Binder | fold improvement in binding affinity over VHH-72 [fold] | binding result |
| --- | --- | --- |
| B1 | > 2 |  |
| B2 | > 2 |  |
| B3 | > 2 |  |
| B4 |  | binds |
| B5 | > 2 |  |
| B6 | > 2 |  |
| B7 | > 2 |  |
| B8 | > 2 |  |
| B9 | > 2 |  |
| B10 | > 2 |  |
